{
  "source": "paper doi:10.1101/2022.04.29.490041",
  "biological_target": "NSF_(E326Q):GFP (dominant-negative variant of NSF, GFP-tagged) (Arabidopsis thaliana) (UniProt Q9M0Y8)",
  "sequence (Q9M0Y8 whole entry E326Q)": "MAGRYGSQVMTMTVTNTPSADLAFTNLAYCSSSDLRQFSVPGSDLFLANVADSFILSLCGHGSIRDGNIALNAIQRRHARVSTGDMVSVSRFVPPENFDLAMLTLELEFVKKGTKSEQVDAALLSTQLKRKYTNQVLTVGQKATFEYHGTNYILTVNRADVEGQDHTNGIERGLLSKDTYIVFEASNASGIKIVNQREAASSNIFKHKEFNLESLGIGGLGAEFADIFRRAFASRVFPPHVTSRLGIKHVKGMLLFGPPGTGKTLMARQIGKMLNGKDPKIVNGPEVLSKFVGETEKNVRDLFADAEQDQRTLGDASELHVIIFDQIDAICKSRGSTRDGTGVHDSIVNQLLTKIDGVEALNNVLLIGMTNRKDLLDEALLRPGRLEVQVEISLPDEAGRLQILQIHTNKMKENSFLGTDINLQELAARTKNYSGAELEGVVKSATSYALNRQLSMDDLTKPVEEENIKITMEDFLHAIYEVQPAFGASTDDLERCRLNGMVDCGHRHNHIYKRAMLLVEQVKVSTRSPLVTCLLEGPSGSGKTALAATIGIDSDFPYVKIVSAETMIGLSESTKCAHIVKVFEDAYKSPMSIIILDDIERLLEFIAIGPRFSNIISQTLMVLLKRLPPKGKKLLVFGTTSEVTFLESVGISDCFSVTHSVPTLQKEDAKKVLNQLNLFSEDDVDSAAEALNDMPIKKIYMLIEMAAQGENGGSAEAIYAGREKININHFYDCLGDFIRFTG",
  "experiment": "co-IP",
  "data": [
    {"substance": "KNOLLE (cytokinesis-specific Qa-SNARE) (natural protein)", "values": [
      {"measurement": "fold increase of co-precipitation relative to wild-type NSF", "result": 38, "unit": "fold"}
    ]}
  ]
}
